Measured values taken from the nanobody polyreactivity screen of Harvey et al. (2022).

Assay: yeast display, Sf9 membrane polyspecificity reagent, FACS + sequencing; frameworks hold sequencing errors
Method in brief: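 Galactose-induced (36–48 hours) yeast carrying a synthetic nanobody display library were exposed to 10% biotinylated, detergent-solubilized Sf9 membrane reagent at 4 °C for 1 hour. FACS followed streptavidin microbead enrichment, using low and high (top ~1%) gates for expression (anti-HA) and reagent binding (streptavidin). Colony PCR, MiSeq 2 × 250 sequencing and CDR-length filtering followed. Labels for polyreactivity reflect the gate of origin.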

Sequence	polyreactivity (PSR sort gate)
QVQLVESGGGLVQAGGSLRLSCAASGSTFFRNAMGCYRQAPGKERELVADISASGGSTYYADSVKGRFTISRDNAKNTVYLQMNSLKPEDTAVYYCNALYIYFYNYLTMDYWGQGTQVTVSS	low polyreactivity
QVQLVESGGGLVQAGGSLRLSCAASGSTFFSNTMGWYRQAPGKERELVAAITSRGGRTYYADSVKGRFTISRDNAKNTVYLQMNSLKPEDTAVYYCAARFVLHGVYLKFYWGQGTQVTVSS	high polyreactivity
QVQLVESGGGLVQAGGSLRLSCAASGSTFFSYAMGWYRQAPGKERELVAAISWIDDGTYYADSVKGRFTISRDNAKNTVYLQMNSLKPEDTAVYYCAATKFWYYGYDYWGQGTQVTVSS	low polyreactivity
QVQLVESGGGLVQAGGSLRLSCAASGSTFFTNAMGWYRPAPGKERELVAAITINDGSTFYADSVKGRFTISRDNAKNSDYLQMNSLKPEDTAVYYCNTDGVDLYDYWGQGTQVTVSS	low polyreactivity
QVQLVESGGGLVQAGGSLRLSCAASGSTFFTNAMGWYRQAPGKERELVAAITINDGSTFYADSVKGRFTISRDNAKNTVYLQMNSLKPEDTAVYYCNADGVDLYDYWGQGTQVTVSS	low polyreactivity
QVQLVESGGGLVQAGGSLRLSCAASGSTFFTNVMGWYRQAPGKERELVAVIRWRGSDTYYADSVKGRFTISRDNAKNTVYLQMNSLKPEDTAVYYCNAIESFYPTTGEQGYSYDYWGQGTQVTVSS	low polyreactivity
QVQLVESGGGLVQAGGSLRLSCAASGSTFFVNAMGWYRQAPGKERELVASITVSSGRTYYADSVKGRFTISRDNAKNTVYLQMNSLKPEDTAVYYCAARHLYWRREGYYWGQGTQVTVSS	high polyreactivity
QVQLVESGGGLVQAGGSLRLSCAASGSTFFVYDMGWYRQAPGKERELVAAISSDTSTNYADSVKGRFTISRDNAKNTVYLQMNSLKPEDTAVYYCNADSYWEYDYWGQGTQVTVSS	low polyreactivity
QVQLVESGGGLVQAGGSLRLSCAASGSTFFYNAMGWYIQAPGKERELVAAITVTGTSTYYADSVKGRFTISRDNAKNTVYLQMNSLKPEDTGVYYCNTSLKRRRLRFNYWGQGTQVTVSS	low polyreactivity
QVQLVESGGGLVQAGGSLRLSCAASGSTFFYYAMGWYRQAPGKERELVARITRGGGSTNYADSVKGRFTISRDNAKNTVYLQMNSLKREDTAVYYCAKRRKVTYDYWGQGTQVTVSS	high polyreactivity
QVQLVESGGGLVQAGGSLRLSCAASGSTFFYYAMGWYRQAPGKERELVATIRGSAGRTYYADSVKGRFTISRDNAKNTVYLQMNSLKPEDTAVYYCARRYWPGSAYWIYDYWGQGTQVTVSS	high polyreactivity
QVQLVESGGGLVQAGGSLRLSCAASGSTFGDNAMGWYRQAPGKERELVAAITSVGTTYYADSVKGRFTISRDNAKNTVYLQMNSLKPEDTAVYYCNAEYVWDDYFEFDYWGQGTQVTVSS	low polyreactivity
QVQLVESGGGLVQAGGSLRLSCAASGSTFGDYAMGWYRQAPGKERELVAAISVRGGSTYYADSVKGRFTISRDYAQNTVYLQMNSLKPEDTAVYYCNKDLYRYPGYDSWGQGTQVTVSS	high polyreactivity
QVQLVESGGGLVQAGGSLRLSCAASGSTFGENAMGWYRQAPGKERELVAAISSGGSTNYADSVNGRFTISRDNAQNTVYLQMNSLQPEDTAVYYCNRYPVRDTGGYWGQGTQVTVSS	low polyreactivity
QVQLVESGGGLVQAGGSLRLSCAASGSTFGFNGMGWYRQAPGKERELVAAIRSSGGSTYYADSVKGRFTISRDNAKNTVYLQMNSLKPEDTAVYYCAADYYTYGFANWYLWYDYWGQGTQVTVSS	high polyreactivity
QVQLVESGGGLVQAGGSLRLSCAASGSTFGFYAMGWYRQAPGKERELVAAIDSGGSTYYADSVKGRFTISRDNAKNTVYLQMNSLKPEDTAVYYCAVRHRYTRAYWGRDYWGQGTQVTVSS	low polyreactivity
QVQLVESGGGLVQAGGSLRLSCAASGSTFGFYAMGWYRQAPGKERELVAAISSSGSTYYADSVKGRFTISRDNAKNTVYLQMISLKPEDTAVYYCAAQPGYYDYDYWGQGTQVTVSS	low polyreactivity
QVQLVESGGGLVQAGGSLRLSCAASGSTFGGNAKGWYRQAPGKERELGAAISSSGGSTYYADSVKGRFTLSRDNAKNTVYLQMNSLKPEDTAVYYCAALYHWTYDYWGQGTQVTVSS	low polyreactivity
QVQLVESGGGLVQAGGSLRLSCAASGSTFGGNAMGWYRPAPGKERELVAGITSSGTSTYYADSVKGRFTISRDNAKNTVYLQMNSLKPEDTAVYYCATDEADESYGFELFDYWGQGTQVTVSS	low polyreactivity
QVQLVESGGGLVQAGGSLRLSCAASGSTFGGNAMGWYRQAPGKERELVAAITVGGDSPYYADSVKGRYTISRDNAKNTVYLQMNSLKPEDTADYYCAARHYWWYDYWGQGTQVTVSS	low polyreactivity
QVQLVESGGGLVQAGGSLRLSCAASGSTFGGNAMGWYRQAPGKERELVAVISKRGGSTYYADSVKGRFTISRDNAKNTVYLQMNSLKAEDTAVYYCAATYSRYWSPTYDYWGEGTQVTVSS	high polyreactivity
QVQLVESGGGLVQAGGSLRLSCAASGSTFGGYAMGWYRPAPGKERELVAAINRSGARTYYADSVKGRFTISRDNAKNTVYLQMNSLKPEDTAVYYCNKAQGSHGAYDYWGQGTQVTVSS	high polyreactivity

Sequence	polyreactivity (PSR sort gate)
QVQLVESGGGLVQAGGSLRLSCAASGSTFGGYAMGWYRQAPGKERELVAAISSGGSTYYADSVKGRFTISRDNAKNTVYLQMNSLKPEDTAVYYCAADTYAHWGYYGSYYRDDYWGQGTQVTVSS	low polyreactivity
QVQLVESGGGLVQAGGSLRLSCAASGSTFGGYAMGWYRQAPGKERELVATITGGGSTNYADSVKGRFTISRDNAKNTVYLQMNSLKPEDTAVYYCAATEKYQYKVYYDPVGAYDYWGQGTQVTVST	low polyreactivity
QVQLVESGGGLVQAGGSLRLSCAASGSTFGHNAMGWYRQAPGKERELVAAIDSGDGTTYADSVKGRFTISRDNAKNTVYLQMNSLKPEDTAVYYCAATTDRAEDDDNIGGYWGQGTQVTVSS	low polyreactivity
QVQLVESGGGLVQAGGSLRLSCAASGSTFGIYAMGWYRQAPGKERELVATISWGGGDTYYADSVKGRFTISRDNAKNTVYLQMNSLKPEDTAVYYCAADLWYGKTSGSTTPDPYDYWGQGTQVTVSS	low polyreactivity
QVQLVESGGGLVQAGGSLRLSCAASGSTFGIYARGWYIQAPGKEWDLVAAITWIGSDTYYADSVKGRFTISRDNAKNTVYLQMISLKPEDTAVYYCNAVKLLGTRGYGYWGQGTQVTVSS	high polyreactivity
QVQLVESGGGLVQAGGSLRLSCAASGSTFGKNAMGWYRQAPGKERELVAAISRSGGRTYYADSVKGRFTISRDNAKNTVYLQMNSLKPEDPAVYYCAREWYTAGSGDYWGQGTQVTVSS	low polyreactivity
QVQLVESGGGLVQAGGSLRLSCAASGSTFGKNAMGWYRQAPGKERELVASITWRGGSTYYADSVKGRFTISRDNAKNTVYLQMNSLKPEDTAVYYCATKWHIHIGSYKYYYWGHGTQVTVSS	low polyreactivity
QVQLVESGGGLVQAGGSLRLSCAASGSTFGKYAMGWYRPAPGKERELVAGITYSGGSTYYADSVKGRFTISRDNAKNTVYLQMNSLKPEDTAVYYCAADGSYYTDFVASKYDYWGQGTQVTVSS	low polyreactivity
QVQLVESGGGLVQAGGSLRLSCAASGSTFGKYAMGWYRQAPGKERELVASISRSGASTYYADSVKGRFTISRDNAKNTVYVQMNSQKPEDTAVYYCNKARNPEGYWRYDYWGQGTQVTVSS	high polyreactivity
QVQLVESGGGLVQAGGSLRLSCAASGSTFGLNAMGWYRQAPGKERELVAAITRSDITNYADSVKGRFTISRDNAKNTVYLQMNSLKPEDTAVDYCAARGLWPYDYWGQGTQVTVSS	low polyreactivity
QVQLVESGGGLVQAGGSLRLSCAASGSTFGLYAMGWYRQAPGKERELVAAITRGGVTDFADCVKGRFTFSRDNAKYTVYLQMNSLKPEDTAVYYCAAQYKRYHGLFGFWGQGTQVTVSS	high polyreactivity
QVQLVESGGGLVQAGGSLRLSCAASGSTFGLYGMGWYRQAPGKDRELVAAITWSGGSTYYADSVKGRFTISRDNAKNTVYLQMNSLKPEDTAVYYSNADYYYWFSYGIGDNEYDYWGQGTQVTVSS	low polyreactivity
QVQLVESGGGLVQAGGSLRLSCAASGSTFGNNTMGWNRQSPGKEREFVAAITESGGGTYADSVKGRFTISRDNAKNTVYLQLNSLKPEDTAVYYCAAVWYIWPFAFYDWAQGTQVTVSS	high polyreactivity
QVQLVESGGGLVQAGGSLRLSCAASGSTFGNNTMGWYRQAPGKEREFVAAITESGGGTYADSVKGRFTISRDNAKNTVYLQMNSLKPEDTAVYYCAAVWYIWPFAFYYWGQGTQVTVSS	high polyreactivity
QVQLVESGGGLVQAGGSLRLSCAASGSTFGNYAMGGYRQAPGKERELVAVSTSAGSTYYADSVKGRFTISRDNAKNTVYLQMNSLKPEDPAVYYCNTGKHVRYYYWGQGTQVTVSS	low polyreactivity
QVQLVESGGGLVQAGGSLRLSCAASGSTFGPNAMGWYRQAPGKERELVATISFRGGTTYYADSVKGRFTISRDHAKNTVYLQMNSLKPEDTAVYYCAVKVGYVRLLYHYYYWGQGTQGTVSS	high polyreactivity
QVQLVESGGGLVQAGGSLRLSCAASGSTFGPNTMGWYRQAPGKERELVAAITSTGSTYYADSVKGRFTISRDNGKNTVYFEMNILLPEDTAVYYCAARRYYGVYYAFYYWGQGTQVTVSS	high polyreactivity
QVQLVESGGGLVQAGGSLRLSCAASGSTFGPYAMGWYRQAPGKERELVAAIRSDGGTYYADSVKGRFTISRDNAKNTVYLQMNSLKPEDTAVYYCATRPINSYYDHDSWGQGTQVTVSS	high polyreactivity
QVQLVESGGGLVQAGGSLRLSCAASGSTFGPYVMGGYRQAPGKERELVAVISGGSTDYADSVKGRFTISRDNAKNTVYLQMNSLKPEDTAVYYCNAEYYFYLSPTVYLYDYWGQGTQVTVSS	high polyreactivity
QVQLVESGGGLVQAGGSLRLSCAASGSTFGQYVMGWYRQAPGKERELVAAITYSGGSTYYADSVKGRFTISRDNAKNTVYLQMNSLKPEDTAVYYCAARGRRDGYSRVPRGYWGQGTQVTVSS	high polyreactivity
QVQLVESGGGLVQAGGSLRLSCAASGSTFGRNAMGWYRQAPGKERELVAAISNGGSTNYADSVKGRFTISRDNAKNTVYLQMNSLNPEDTAVYYCNRRVPYSFYSRGYYYWGQGTQVTVSS	high polyreactivity
